Assay results: the RNAGym collection of RNA variant scans (doi:10.7554/elife.80360)

B1: Hammerhead Ribozyme (parent)
chain: ACCGGAUGUGCUUUCCGGUCUGAUGAGUCCGUGAGGACGAAACAG

Variants of: B1
Experiment: self-cleavage, relative activity (ratio to wild type); higher = more cleavage; co-transcriptional

Variant	self-cleavage
ACCGGAUGUGUUUUCGGGUCUGAUGAGUCCGUGAGGACGAAACAG	0.684
ACCGGAUGUGCUUUCCGCUCUGAUGAGUUCGUGAGGACGAAACAG	0.506
ACCGGAUGUGCUUUCCGGUUUGAUGAGUCCGUGAGGCCGAAACAG	0.549
ACCGGAUGUUCUUUCCGGUCCGAUGAGUCCGUGAGGACGAAACAG	0.896
ACCGGAGCUGCUUUCCGGUCUGAUGAGUCCGUGAGGACGAAACAG	1.37
ACCGGAUGUGCUUUCCGGUCUGACGAGUCCGUGAGGACGAAACAU	0.669
AUCGGAUGUGCUUUCCGGUCUGUUGAGUCCGUGAGGACGAAACAG	0.415
ACCGGAUGUGCUUUUCGGUCUGAUGAGUCCGUGAGUACGAAACAG	0.521
ACCGGAUGUGCUUUCCGGUCUGAUGAUUCCGGGAGGACGAAACAG	0.417
ACCGGAUGUGCGUUCCGGUCUAAUGAGUCCGUGAGGACGAAACAG	0.338
ACCGGAUGUACUUUCCGGACUGAUGAGUCCGUGAGGACGAAACAG	0.347
ACCGGAUAUGCUUUCCGGUCUGAUGAGACCGUGAGGACGAAACAG	0.738
ACCGGAUGUGCUAUCCGGUCUGAUGAGUCCGGGAGGACGAAACAG	1.3
ACCGGAUGUGCUUUCCUGUCUGAUGAGUCCGUGAGGACUAAACAG	0.357
ACCGGAUGUGCUUUCCGGUCUGCUGAGUCCGUGAGGACGAAACGG	0.896
ACCGGAUGUGCUUUCCGGUCUGAUGAGUCCGUGAGGACGAGACUG	0.322
UCCGGAUGUGCUUUCGGGUCUGAUGAGUCCGUGAGGACGAAACAG	0.459
ACCGGAUGUGCUUUCCGGUCUGAUGAGUCCGUGAAGACGAAAUAG	0.401
AUCGGAUGUGCUUUCCGGUCUGAAGAGUCCGUGAGGACGAAACAG	1.05

Variant	self-cleavage
ACCGGAUGUGCUUUCCGGUCUGAUGAGUCCGUGAGUACGAAAUAG	0.304
ACCGGAUGUGCUUUCCGGCCUCAUGAGUCCGUGAGGACGAAACAG	0.323
ACCGCAUGUGCUUUCCGGUCGGAUGAGUCCGUGAGGACGAAACAG	0.367
ACCGGAUGUGCUUUACGGUCUGAUGAGUCCGUGAGGACGUAACAG	0.394
ACCGGAAGUGCUUUCCGGUCUGAUGAGUCCGUGAGGACUAAACAG	0.289
ACCGGAGGCGCUUUCCGGUCUGAUGAGUCCGUGAGGACGAAACAG	1.18
ACCGGACGUGCUUUCCGGUCUGAUGAGUCCGUGAGGACAAAACAG	0.469
ACCGGACGUGCUUUCCGGUCUGAUGAGUCCGUGAGGACCAAACAG	0.331
ACCGGAUGAGCUUUCCGGUCUGAUGAGUCCGUUAGGACGAAACAG	0.908
ACCGAAUGUGCUUUCCGGUCUGAUGAGUCCGUGAGCACGAAACAG	0.384
ACCGGAUGUGUUUUCCGGUCUGAUGUGUCCGUGAGGACGAAACAG	0.64
ACCGGAUGUGCUUUCCCGUAUGAUGAGUCCGUGAGGACGAAACAG	0.313
ACCGGAUGUGCUUUCCGGUCUGAUCAGUCCGUGUGGACGAAACAG	0.327
ACCGGAUAUGCUUUCCGGUCUGACGAGUCCGUGAGGACGAAACAG	0.979
ACCGGACGUGCUUUCCGGUCUGAUGAGUCCGUGUGGACGAAACAG	0.995
ACCGGAUGUGCCUUCCGGUCUGAUGAGUCCGAGAGGACGAAACAG	1.26
ACCGGAUGUGCUUUCCGGACCGAUGAGUCCGUGAGGACGAAACAG	0.248
ACCGGAUGUGCUUUCCGGUCUGAUGACUCCGUGAGAACGAAACAG	0.392
ACCAGAUGUGCUUUGCGGUCUGAUGAGUCCGUGAGGACGAAACAG	0.419

Variant	self-cleavage
ACCGCAUGUGCUUUCCGGUCUGAUGAGUACGUGAGGACGAAACAG	0.256
ACCGGAUGUGGUGUCCGGUCUGAUGAGUCCGUGAGGACGAAACAG	1.11
ACCGGAUGUGCUUUCCGGUCUGAUGAAUCCGUGAGUACGAAACAG	0.391
ACCGGAUGUGCUCUCCGGUCAGAUGAGUCCGUGAGGACGAAACAG	0.754
ACCGGAUGUGCUUUACGAUCUGAUGAGUCCGUGAGGACGAAACAG	0.323
ACCGGUUGUGCUUUCCGGUCUGAUGACUCCGUGAGGACGAAACAG	0.552
ACCGGAUGUGAUUUCCGGUCUGAUGAGUCCGUGCGGACGAAACAG	0.731
ACCGGAUGUGCUUCUCGGUCUGAUGAGUCCGUGAGGACGAAACAG	0.996
ACCGCAUGUGCUUUCCGGUCUUAUGAGUCCGUGAGGACGAAACAG	0.299
ACCGGAGGUGCUUCCCGGUCUGAUGAGUCCGUGAGGACGAAACAG	0.944
CCCGGAUGUGCUUUCCGGUCUGCUGAGUCCGUGAGGACGAAACAG	0.287
ACCGGAUGUGCUUACCGGUCUGAUGAGUCCGUGAGGACGAAUCAG	0.272
ACCGGAUGGGCUUUCCGGUCUUAUGAGUCCGUGAGGACGAAACAG	0.358
ACCAGAUGUGCUUUCCGGUCUGAUGAGUCCGUGAGGACGAAACGG	0.84
ACCGGAUGUGCUUGCCGGUCUGAUGAGUCCGUGAGGACGUAACAG	0.356
ACCGGAUGUGCUUUCCGAUCUGACGAGUCCGUGAGGACGAAACAG	0.757
ACCGGAUGUGCUUUCCGGUCUAAUGAGUCGGUGAGGACGAAACAG	0.343
ACCGCAUGUGCUUUCCGGUCUGAUGAGUCCGUGAGGACGAAAUAG	0.316
ACCGGAUGUGCUUUCCGGUCUGAUCAGUCCGUGAGGCCGAAACAG	0.285
